For 6 molecules, Kd results are on record in US20140363428A1 (Chugai, published 2014).

The labels stand for the following.
B1: Fv-4-F1120 (antibody, human IgG1, kappa)
heavy: QVQLQESGPGLVKPSETLSLTCAVSGHSISHDHAWSWVRQPPGEGLEWIGFISYSGITNYNPSLQGRVTISRDNSKNTLYLQMNSLRAEDTAVYYCARSLARTTAMDYWGEGTLVTVSSASTKGPSVFPLAPSSKSTSGGTAALGCLVKDYFPEPVTVSWNSGALTSGVHTFPAVLQSSGLYSLSSVVTVPSSSLGTQTYICNVNHKPSNTKVDKKVEPKSCDKTHTCPPCPAPELLGGPSVFLFPPKPKDVLYISRTPEVTCVVVDVSHEDPEVKFNWYVDGVEVHNAKTKPREEQYNSTYRVVSVLQPLHADWLNGKEYKCKVSNKALPAPIEKTISKAKGQPREPQVYTLPPSRDELTKNQVSLTCLVKGFYPSDIAVEWESNGQPENNYKTTPPVLDSDGSFFLYSKLTVDKSRWQQGNVFRCSVMHEALHYHVTQKSLSLSP
light: DIQMTQSPSSLSASVGDSVTITCQASTDISSHLNWYQQKPGKAPELLIYYGSHLLSGVPSRFSGSGSGTDFTFTISSLEAEDAATYYCGQGNRLPYTFGQGTKVEIERTVAAPSVFIFPPSDEQLKSGTASVVCLLNNFYPREAKVQWKVDNALQSGNSQESVTEQDSKDSTYSLSSTLTLSKADYEKHKVYACEVTHQGLSSPVTKSFNRGEC
B2: Fv-4-F1121 (antibody, human IgG1, kappa)
heavy: QVQLQESGPGLVKPSETLSLTCAVSGHSISHDHAWSWVRQPPGEGLEWIGFISYSGITNYNPSLQGRVTISRDNSKNTLYLQMNSLRAEDTAVYYCARSLARTTAMDYWGEGTLVTVSSASTKGPSVFPLAPSSKSTSGGTAALGCLVKDYFPEPVTVSWNSGALTSGVHTFPAVLQSSGLYSLSSVVTVPSSSLGTQTYICNVNHKPSNTKVDKKVEPKSCDKTHTCPPCPAPELLGGPSVFLFPPKPKDVLYISRTPEVTCVVVDVSHEDPEVKFNWYVDGVEVHNAKTKPREEQYNSTYRVVSVLQPLHADWLNGKEYKCKVSNKALPAPIEKTISKAKGQPREPQVYTLPPSRDELTKNQVSLTCLVKGFYPSDIAVEWESNGQPENNYKTTPPVLDSDGSFFLYSKLTVDKSRWQQGNEFRCSVMHEALHYHVTQKSLSLSP
light: DIQMTQSPSSLSASVGDSVTITCQASTDISSHLNWYQQKPGKAPELLIYYGSHLLSGVPSRFSGSGSGTDFTFTISSLEAEDAATYYCGQGNRLPYTFGQGTKVEIERTVAAPSVFIFPPSDEQLKSGTASVVCLLNNFYPREAKVQWKVDNALQSGNSQESVTEQDSKDSTYSLSSTLTLSKADYEKHKVYACEVTHQGLSSPVTKSFNRGEC
B3: Fv-4-F1123 (antibody)
heavy: QVQLQESGPGLVKPSETLSLTCAVSGHSISHDHAWSWVRQPPGEGLEWIGFISYSGITNYNPSLQGRVTISRDNSKNTLYLQMNSLRAEDTAVYYCARSLARTTAMDYWGEGTLVTVSSASTKGPSVFPLAPSSKSTSGGTAALGCLVKDYFPEPVTVSWNSGALTSGVHTFPAVLQSSGLYSLSSVVTVPSSSLGTQTYICNVNHKPSNTKVDKKVEPKSCDKTHTCPPCPAPELLGGPSVFLFPPKPKDVLYISRTPEVTCVVVDVSHEDPEVKFNWYVDGVEVHNAKTKPREEQYNSTYRVVSVLQPLHADWLNGKEYKCKVSNKALPAPIEKTISKAKGQPREPQVYTLPPSRDELTKNQVSLTCLVKGFYPSDIAVEWESNGQPENNYKTTPPVLDSDGSFFLYSKLTVDKSRWQQGNVFSCSVMHEALHYHVTQKELSLSP
light: DIQMTQSPSSLSASVGDSVTITCQASTDISSHLNWYQQKPGKAPELLIYYGSHLLSGVPSRFSGSGSGTDFTFTISSLEAEDAATYYCGQGNRLPYTFGQGTKVEIERTVAAPSVFIFPPSDEQLKSGTASVVCLLNNFYPREAKVQWKVDNALQSGNSQESVTEQDSKDSTYSLSSTLTLSKADYEKHKVYACEVTHQGLSSPVTKSFNRGEC
B4: Fv-4-F1122 (antibody, human IgG1, kappa)
heavy: QVQLQESGPGLVKPSETLSLTCAVSGHSISHDHAWSWVRQPPGEGLEWIGFISYSGITNYNPSLQGRVTISRDNSKNTLYLQMNSLRAEDTAVYYCARSLARTTAMDYWGEGTLVTVSSASTKGPSVFPLAPSSKSTSGGTAALGCLVKDYFPEPVTVSWNSGALTSGVHTFPAVLQSSGLYSLSSVVTVPSSSLGTQTYICNVNHKPSNTKVDKKVEPKSCDKTHTCPPCPAPELLGGPSVFLFPPKPKDVLYISRTPEVTCVVVDVSHEDPEVKFNWYVDGVEVHNAKTKPREEQYNSTYRVVSVLQPLHADWLNGKEYKCKVSNKALPAPIEKTISKAKGQPREPQVYTLPPSRDELTKNQVSLTCLVKGFYPSDIAVEWESNGQPENNYKTTPPVLDSDGSFFLYSKLTVDKSRWQQGNVFSCSVMHEALHYHVTRKSLSLSP
light: DIQMTQSPSSLSASVGDSVTITCQASTDISSHLNWYQQKPGKAPELLIYYGSHLLSGVPSRFSGSGSGTDFTFTISSLEAEDAATYYCGQGNRLPYTFGQGTKVEIERTVAAPSVFIFPPSDEQLKSGTASVVCLLNNFYPREAKVQWKVDNALQSGNSQESVTEQDSKDSTYSLSSTLTLSKADYEKHKVYACEVTHQGLSSPVTKSFNRGEC
B5: Fv-4-F1124 (antibody)
heavy: QVQLQESGPGLVKPSETLSLTCAVSGHSISHDHAWSWVRQPPGEGLEWIGFISYSGITNYNPSLQGRVTISRDNSKNTLYLQMNSLRAEDTAVYYCARSLARTTAMDYWGEGTLVTVSSASTKGPSVFPLAPSSKSTSGGTAALGCLVKDYFPEPVTVSWNSGALTSGVHTFPAVLQSSGLYSLSSVVTVPSSSLGTQTYICNVNHKPSNTKVDKKVEPKSCDKTHTCPPCPAPELLGGPSVFLFPPKPKDVLYISRTPEVTCVVVDVSHEDPEVKFNWYVDGVEVHNAKTKPREEQYNSTYRVVSVLQPLHADWLNGKEYKCKVSNKALPAPIEKTISKAKGQPREPQVYTLPPSRDELTKNQVSLTCLVKGFYPSDIAVEWESNGQPENNYKTTPPVLDSDGSFFLYSKLTVDKSRWQQGNVFSCSVMHEALHYHVTRKELSLSP
light: DIQMTQSPSSLSASVGDSVTITCQASTDISSHLNWYQQKPGKAPELLIYYGSHLLSGVPSRFSGSGSGTDFTFTISSLEAEDAATYYCGQGNRLPYTFGQGTKVEIERTVAAPSVFIFPPSDEQLKSGTASVVCLLNNFYPREAKVQWKVDNALQSGNSQESVTEQDSKDSTYSLSSTLTLSKADYEKHKVYACEVTHQGLSSPVTKSFNRGEC
B6: Fv-4-F1230 (antibody)
heavy: QVQLQESGPGLVKPSETLSLTCAVSGHSISHDHAWSWVRQPPGEGLEWIGFISYSGITNYNPSLQGRVTISRDNSKNTLYLQMNSLRAEDTAVYYCARSLARTTAMDYWGEGTLVTVSSASTKGPSVFPLAPSSKSTSGGTAALGCLVKDYFPEPVTVSWNSGALTSGVHTFPAVLQSSGLYSLSSVVTVPSSSLGTQTYICNVNHKPSNTKVDKKVEPKSCDKTHTCPPCPAPELLGGPSVFLFPPKPKDTLYISRTPEVTCVVVDVSHEDPEVKFNWYVDGVEVHNAKTKPREEQYNSTYRVVSVLTVLHQDWLNGKEYKCKVSNKALPAPIEKTISKAKGQPREPQVYTLPPSRDELTKNQVSLTCLVKGFYPSDIAVEWESNGQPENNYKTTPPVLDSDGSFFLYSKLTVDKSRWQQGNVFSCSVMHEALHYHVTRKDLSLSP
light: DIQMTQSPSSLSASVGDSVTITCQASTDISSHLNWYQQKPGKAPELLIYYGSHLLSGVPSRFSGSGSGTDFTFTISSLEAEDAATYYCGQGNRLPYTFGQGTKVEIERTVAAPSVFIFPPSDEQLKSGTASVVCLLNNFYPREAKVQWKVDNALQSGNSQESVTEQDSKDSTYSLSSTLTLSKADYEKHKVYACEVTHQGLSSPVTKSFNRGEC

The assay deals with T1, soluble human FcRn (human, UniProt P55899 24-297; P61769 21-119).
T1 construct: Heterodimer of alpha chain and beta2-microglobulin; also called hFcRn
T1 sequence (P55899 24-297 limits assumed, chain 1 of 2): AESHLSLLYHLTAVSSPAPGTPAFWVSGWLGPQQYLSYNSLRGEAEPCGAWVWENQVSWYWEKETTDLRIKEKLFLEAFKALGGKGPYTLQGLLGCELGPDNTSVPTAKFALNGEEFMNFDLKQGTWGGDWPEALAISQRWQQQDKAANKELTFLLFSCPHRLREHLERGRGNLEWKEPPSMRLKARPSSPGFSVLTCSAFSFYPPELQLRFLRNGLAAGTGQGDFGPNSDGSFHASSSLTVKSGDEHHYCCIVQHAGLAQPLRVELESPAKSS
T1 sequence (P61769 21-119 limits assumed, chain 2 of 2): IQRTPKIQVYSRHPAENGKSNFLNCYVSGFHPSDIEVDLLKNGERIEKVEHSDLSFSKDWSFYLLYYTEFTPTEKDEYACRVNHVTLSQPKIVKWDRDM
The assay is described as follows: SPR (Biacore), pH 7.0.
The molecule B1 registered a Kd of 10 nM. In other words, the double-digit nanomolar range.

With B2, the Kd came out at 10 nM. For the molecule B3, binding was characterised by a dissociation constant (Kd) of 9.5 nM. The Kd values of the last two molecules are within 1.5-fold of each other. For B4, binding was put at a Kd of 14 nM. The figure for B5 is 12 nM; for B6 it is 112 nM.

By Kd is commonly meant the concentration at which binding is half-saturated. High values mean a looser complex, low ones a tighter complex.
